Assay: yeast display, Sf9 membrane polyspecificity reagent, FACS + sequencing; frameworks hold sequencing errors
Outline: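 In a synthetic yeast display library (Saccharomyces cerevisiae BJ5465), nanobody expression was induced with galactose for 36–48 hours. FACS gates were set low and high (top ~1%) using anti-HA fluorescence for expression and streptavidin fluorescence for binding of the Sf9 membrane reagent. Each polyreactivity label is drawn from the gate of origin.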

Sequence | polyreactivity (PSR sort gate)
QVQLEESGGGLVQAGGSLRLSCAASGSTFVGNAMGWYRQAPGKERELVAAISFSGGSTYYADSVKGRFTISRDNAKNTVYLQMNSLKPEDTAVYYCAKKTRYRSRGMNYWGQGTQVTVSS | high polyreactivity
QVQLEESGGGLVQAGGSLRLSCAASGSTFYLYDMGWYRQAPGKERELVAVISWSGGSTSYADSVKGRFTISRDNAKNTIYLQMNSLKPEDTAVYYCNTDFYHWGQGTQVTVSS | low polyreactivity
QVQLEESGGGLVQAGGSLRLSCAASGSTIPPYAMGWYRQAPRKERELVAAITSGGSTYYADSVKGRFTISRDNAKNTVYLQMNSLKPEDTAVYYCAASWDPWEYDYWGQGTQVTVSS | low polyreactivity
QVQLEESGGGLVQAGGSLRLSCAASGSTLIYNAMGWYRPAPGKERELVAAISASGTRTYYADSVKGRFTISRDNAKNTVYLQMNSLKPEDTAVYYCNALRRAPRAEYYYWGQGTQVTVSS | high polyreactivity
QVQLEESGGGLVQAGGSLRLSCAASVFPYYAMRWYRQATGKERELVAAITWSGADTYYADSVKGRFTISRDNAKNTVYLQMNSLKPEDTAVYYCAAEYSPIRDYEYWGQGTQVTVSS | low polyreactivity
QVQLEESGGGLVQAGGSLRLSCAASYAMGWYRQAPGKERELVATITRTDRTNYADSVKGRFTISRDNAKNTVYLQMNSLKPEDTAVYYCNKVDWSAPGDSPKYGYWGQGTQVTVSS | low polyreactivity
QVQLEESGGGLVQAGGSLRLSCAATGRIFSYAMGWYRQAPGKETELVAGISRSGGSTYYADSVKGRFTISSDNAKITVYLQMNSVKPEDTAVYYCARYDRGGRHYYYWGQGTQVTVSS | high polyreactivity
QVQLEESGGGLVQAGGSLRLSCAATGSLFYTYSMGWYRQAPGKERELGASIRSDGITNYADSVKGRFTISRDNAKNTVYLQMNSLKPEDTAVYYCAARIIWSTNYYYWSGYNSWGQGTQVTVSS | high polyreactivity
QVQLEESGGGLVQAGGSLRLSCAAYGSIFSPYAMGWYRHAPGKERELVAAISGRGTSTYYADSVKGRFTISRDNAKNTVDLQMNTLKPEDTEVYYCAAVSYGRSGYDYWGQGTQVTVSS | high polyreactivity
QVQLEESGGGLVQAGGSLRLSCADSGSTFYTNAMGWYRQAPGKERELVAAISASVGSTYYADSVKGRFTISRDNAKNTVYLQMNILKPEDTAVYYCAAYVWDSRRYDYWGQGTQVTVSS | low polyreactivity
QVQLEESGGGLVQAGGSLRLSCAGSGGIFDVYAIGWYRPAPGKERELVAAITASGGSTYYADSVQGRFTISRDNAKNTVYFQMNSLKPEDTAGYYCAVQGFRYHSREYDYWGQGTQVTVSS | low polyreactivity
QVQLEESGGGLVQAGGSLRLSCAPSGFIFAWYAMGCYRQAPGKERELVATISSSGARTYYADSVKGRFTISRDNAKNTVYLQMNSLKPEDTAVYYCAVGSVGRLKFYYWGQGTQVTVSS | high polyreactivity
QVQLEESGGGLVQAGGSLRLSCAPSGRIYNRNAMGWYRQAPGKERELVASISSGGRTNYADSVKGRFTISRDNAKTTVYLQMNSLKPEDTAVFYCAGNSPRFLLDYWGQGTQVTVSS | low polyreactivity
QVQLEESGGGLVQAGGSLRLSCASSGSTFATYAMGWDRQAPGKERELVAGISKRGGRTYYADSLKGRFTISRDNAKNTVYFQMNSLKPEDTAVYYCARYSPYYRVKDYDSWGQGTQVTVSS | high polyreactivity
QVQLEESGGGLVQAGGSLRLSCASSGYIFATYAMGWYRQAPGKERELVAAITSTGSTYYADSVKGRFTISRDNAKNTVYLQMNSLKPEDTAVYYCAAVSGYRARYYLYYYWGQGTQVTVSS | high polyreactivity
QVQLEESGGGLVQAGGSLRLSCPASGRTSYGNTMGTYRQAPGKERELVATISGGGSTNYADSVKGRFTISRDNAKNTVYLQMNSLKPEDTAVYYCAARRYPFPGYRYYFWGQGTQVTVSS | high polyreactivity
QVQLEESGGGLVQAGGSLRLSCSASGLILHGYAMGWYRQAPGKERELVAAITRSGGRTYYADSVKGRFTISRDNAKYTVYLQMNSLKPEDTAVYYCAALGWSGRYRYDYWGQGTQVTVSS | high polyreactivity
QVQLEESGGGLVQAGGSLRLSCSASGRIFSRNAMGWYRQAPGKERELVAAIRPRGGTTYYADSVKGRFTISRDNAKNTVYLQINSLKPYDTAVYYCATGGGRNSTDRRRLHYTYYYWGQGTQVTVSS | low polyreactivity
QVQLEESGGGLVQAGGSLRLSCSASGSIFRGYAMGWYRQAPGKERELVAAITSGGRTNYADSVKGRFTISRDNAKITVYLQMNSLKPEVTAVYYWIAGFRFYAYSRIAGEDYWGQGSQVTVSS | low polyreactivity
QVQLEESGGGLVQAGGSLRLSGAASGYTFGHYGMGWYRQAPGKERELVAAINSGGSTNDADSVKGRFTISRDNAKNTVYVQMNSLKPEDTAVYYCAADHSGGSRYDYWGQGTLVTVSS | low polyreactivity
QVQLEESGGGLVQAGGSLRLSSAASGGIFDVSHMGWYRQAPGKERELVAAISENGGSTYYADSVKGRFTISRDNAKNTVYLLMNSLKPADTAVYYCAADYVSLSVFSYWAWYDYWGHGTQVTVSS | low polyreactivity
QVQLEESGGGLVQAGGSLRLSSAASGRIYTKNAMGRYRHAPGKERELVAAITTSGGSTYYADSVKGRFTISRDNAKNSVYLQMKSLKPEDTAVYYCAAERYNGYDYWGQGTQVSVSS | high polyreactivity
QVQLEESGGGLVQAGGSLRLTCAASGSIFDYNAMGWYRQAHGKERELVAAITSGGITYADSVKGRFTISRDNAKNTVYLQMNSLKPEDTAVYYCAALDKLSKYRRYRYGYWGQGTQVTVSS | high polyreactivity
QVQLEESGGGLVQAGGSLRLTCAASGSTVDKNDMGWYRPEPGQESELVAASTSSGSSTYYADSVKGRFTISRDNAKNTVYLQMNSLKPEDTAVYYCAADKYYYDRLSPSGDYLGQGTQVTVSS | low polyreactivity
QVQLEESGGGLVQAGGTLRLRCAASVIIYDDKTMGWYRQAPGKEMELVAPISSSRGSTYYADSVKGRFTISRDNAKNTVYLQMNSLKPEDTAVYYCAAAVYYTYPYIVFRNYPEFDYWGQGTQVSVSS | low polyreactivity
QVQLEESGGGLVQAGGTLRLSCAASGIIFDGNAMVWYRQAPGKERELVASITSDSSTNYADSVKGRFTISRDNAKNTVYLQMNSLKPEDTAVYYCAADHWIAPRRDYWGQGSQVTVSS | low polyreactivity
QVQLEESGGGLVQAGRSLRLSCAASGRIFWRYVMGWYRQAPGKERELVAAINRNGDNTSYADSVKGRFTISRDTAKNTVYLQMNSLKPEHTEVHYCNADWWWGYGYWGQGTQVSVSS | low polyreactivity
QVQLEESGGGLVQAVGIIRLSCGASVSIFDAYAIGWYRKAPGKETELVASITYGGRTNYADSVEGRFTISRDNAKNTVYLQMNSLKPEDTAVYYCAAGGGYYYRYHRYPRGYWGQGTQVTVTS | high polyreactivity
QVQLEESGGGLVQEGGSLRISCAASGRTFLRYVMGWYRQAPGKERALVAAISSRGGSTYYADSVKGRFTISRDNAKNTVYLQMNSLKPEDTAVYYCAARFKVRDYPDGNYEYWGQGTQVTVSS | high polyreactivity
QVQLEESGGGLVQEGGSLRLSCAASGSIFTQNARGWNRQAPGKERELVAAITISGGGTYYADSVKGRFTISRDNAKNTVYFQMNSQKPEDTAVYHCAAAGRARYYYRYGYWGQVTQVTVSS | low polyreactivity

Source: the nanobody polyreactivity screen of Harvey et al. (2022)
